The results in this text go back to publication PMC3094755.

pKd: −log10 of the molar value. Where “and” joins values, the source holds several entries; their conditions need not be identical. Equal entries are not always repeated.

The series deals with PARP-1 F1 (Homo sapiens) (UniProt P09874). Description: fluorescence anisotropy. Particulars: 5'-phosphate; FA: 50 mM Tris-HCl pH 7, 150 uM ZnSO4, 4 mM DTT, 0-200 mM NaCl, 25 C, 10 nM DNA (mutants 25 nM DNA, 25 mM NaCl); EMSA: 50 mM Tris-HCl pH 7.4, 150 uM ZnSO4, 4 mM. For orientation: Fluorescence polarisation rises when a labelled molecule tumbles more slowly, as on binding a larger partner.
Chain of PARP-1 F1 (Homo sapiens) (P09874 1-108): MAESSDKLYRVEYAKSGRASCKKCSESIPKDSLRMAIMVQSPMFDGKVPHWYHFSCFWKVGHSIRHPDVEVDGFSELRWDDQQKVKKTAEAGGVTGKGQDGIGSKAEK

For “CGGTCGATCGTAAGATCGACCGGCGCTGGAGCTTGCTCCAGCGC [44-nt nicked dumbbell, 5'-phosphate, fluorescein-dT]”, the pKd was 5.18 and 5.96.

What is called pKd is the negative decadic logarithm of the Kd, by convention in mol/L. Higher therefore signals a low Kd.
